From patent US20190106494A1 (published 2019)

Target: PD-L1 (soluble; 'PD-L1 ligand' of the Octet assay) (UniProt Q9NZQ7 19-238, limits assumed)
Test: BLI (Octet RED 96), antibody on anti-human IgG capture sensor, PD-L1 in solution, 1:1 fit
Protocol: Affinity Measurement: The affinity measurement was conducted with Octet RED 96 (ForteBio) instrument at 30 degree Celsius. Briefly, anti-human IgG capture sensor (AHC from ForteBio cat #18-5060) was equilibrated with assay buffer (1× dilution of 10× Kinetics Buffer (ForteBio, Cat #18-5032). Test antibody samples were diluted to 3 ug/mL and allowed to bind to the sensors for 5 min. The sensors were then washed in assay buffer for 3 minutes, and PD-L1 ligand diluted at different concentrations were allowed to bind to the mAb coated on the sensors for 5 minutes. Afterwards, dissociation was followed for 10 minutes in the assay buffer. The sensors could be regenerated by washing in glycine buffer and assay buffer 3 times. The data were fitted with 1:1 binding model using the ForteBio software.

PD-L1 (soluble; 'PD-L1 ligand' of the Octet assay), sequence (Q9NZQ7 19-238 limits assumed): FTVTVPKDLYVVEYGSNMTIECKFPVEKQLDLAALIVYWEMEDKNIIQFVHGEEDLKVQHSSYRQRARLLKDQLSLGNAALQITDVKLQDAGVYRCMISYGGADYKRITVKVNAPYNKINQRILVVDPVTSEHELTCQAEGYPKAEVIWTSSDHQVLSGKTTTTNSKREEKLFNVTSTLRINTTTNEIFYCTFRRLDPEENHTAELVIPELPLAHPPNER

Kd: 0.162 nM
koff: 6.2e-05 s⁻¹
kon: 769000 M⁻¹ s⁻¹
B1: 111F1 chimeric anti-PD-L1 antibody (antibody, V domains shown)
VH: CQSVKESEGGLFKPTDTLTLTCTVSGIDLNSIAISWVRQAPGNGLEWIGTIGSSGSAYYASWAKSRSTITRNTSENTVTLEMTSLTAADTATYFCAKEILYYGMDLWGPGTLVTVSS
VL: DPVMTQTPASVSEPVGGTVTINCQASQSISSYLAWYQQKPGQRPKLLIYAASNVEPGVPSRFRGRGSGTQFTLTISDLECDDAATYYCQSTYGSTGGGDYGNAFGGGTKVVVVR
